From the supplement of paper PMC7125110
± gives the standard error. This sample holds only a part of the variants without activity.

B1: glmS ribozyme (parent)
chain: AUAAAAGCGCCAGAACUACAGAAAUGUAGUUGACGAGGAGGAGGUUUAUCGAAUUUUCGGCGGAUGCCUCCAAA

Tests used:
Settings in all cases: with glucosamine-6-phosphate
[1] = variants of: B1; test: self-cleavage kobs at 40 uM GlcN6P; higher = faster cleavage; RNA array
In short: (§1)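 Tracking of barcoded ribozyme variants used a hybridised Cy3 probe at 37 °C, after in situ transcription by E. coli RNA polymerase on sequenced MiSeq chips. The flowed solution held 40 μM to 10 mM glucosamine-6-phosphate in HEPES/KCl/Mg(OAc)2 buffer, and imaging ran over ~14 h. kobs was taken from exponential decay fits of normalised per-tile medians, and kcat and KM from weighted Michaelis–Menten fits.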

[2] = variants of: B1; test: self-cleavage kobs at 2500 uM GlcN6P; higher = faster cleavage; RNA array
In short: as §1

[3] = variants of: B1; test: self-cleavage kobs at 10000 uM GlcN6P; higher = faster cleavage; RNA array
In short: as §1

[4] = variants of: B1; test: self-cleavage kobs at 160 uM GlcN6P; higher = faster cleavage; RNA array
In short: as §1

[5] = variants of: B1; test: self-cleavage kobs at 640 uM GlcN6P; higher = faster cleavage; RNA array
In short: as §1

| Variant | self-cleavage kobs at 40 uM GlcN6P [1] [s⁻¹] | self-cleavage kobs at 2500 uM GlcN6P [2] [s⁻¹] | self-cleavage kobs at 10000 uM GlcN6P [3] [s⁻¹] | self-cleavage kobs at 160 uM GlcN6P [4] [s⁻¹] | self-cleavage kobs at 640 uM GlcN6P [5] [s⁻¹] |
| --- | --- | --- | --- | --- | --- |
| A73U | 0.00108 ± 0.00026 | 0.00477 ± 0.0019 | 0.0245 ± 0.0093 | – | – |
| A39G G51C G62C | < 1e-05 | – | < 1e-05 | – | – |
| A12G A36C G51U | < 1e-05 | – | < 1e-05 | – | – |
| A15G U30C C67A | 0.000291 ± 6.8e-05 | 0.00517 ± 0.0012 | 0.0108 ± 0.0031 | 0.00105 ± 0.00028 | 0.00103 ± 0.00029 |
| A14C U49A | < 1e-05 | – | < 1e-05 | – | < 1e-05 |
| C50G G60C C67U | 6.17e-05 ± 1.7e-05 | 0.000124 ± 3.4e-05 | 4.29e-05 ± 1.2e-05 | – | 0.000438 ± 0.00012 |
| C11A G13C A53U C58G A64U U69A | 7.02e-05 ± 2.7e-05 | – | – | – | – |
| C10G C50U U54G U56G | < 1e-05 | – | < 1e-05 | – | – |
| A42C U46G | < 1e-05 | – | – | < 1e-05 | – |
| U55G G60U | < 1e-05 | < 1e-05 | – | < 1e-05 | < 1e-05 |
| G43U A48G C70G | < 1e-05 | – | < 1e-05 | – | – |
| C11A G32U A42G | < 1e-05 | – | – | – | – |
| G41C U57A | < 1e-05 | < 1e-05 | < 1e-05 | < 1e-05 | – |
| G9U G35C G43A | < 1e-05 | – | – | < 1e-05 | < 1e-05 |
| C11G G44A | < 1e-05 | – | < 1e-05 | < 1e-05 | < 1e-05 |
| A39C U54C A64C | < 1e-05 | – | – | – | – |
| A15G G32C G41A C70A | < 1e-05 | – | – | – | – |
| C50G G63A | 5.7e-05 ± 1.5e-05 | 3.78e-05 ± 1.6e-05 | – | 0.000484 ± 0.00023 | 4e-05 ± 1.7e-05 |
| A6G C8U U57C C67U | < 1e-05 | – | < 1e-05 | – | – |
| G44A A52U | < 1e-05 | – | – | < 1e-05 | < 1e-05 |
| U56G U69C | 0.000126 ± 1.8e-05 | 0.00118 ± 0.00041 | 0.00475 ± 0.0011 | 0.000192 ± 6.9e-05 | 0.000627 ± 0.00011 |
| U30A A33U G41U A53C G60A C68G | < 1e-05 | – | < 1e-05 | < 1e-05 | < 1e-05 |
| A15G U55G G63A | < 1e-05 | – | < 1e-05 | – | – |
